Reference: US20190359653A1 (Genentech, published 2019)
Numbered stars: 1 amine (or outer) side, 2 acyl side, 3 side chain; on linkers, the order of the positions; unused ones are H or OH. Square brackets hold non-standard residues; d marks the D form. ξ: configuration not given here. Adp = 2-amino-3-decyloxy-propionic acid, CCCCCCCCCCOC[C@H](N[*:1])C(=O)[*:2]; Tbh = 6-hydroxy-L-norleucine, O=C([C@H](CCCCO[*:3])N[*:1])[*:2]; hPhe = N[C@@H](CCc1ccccc1)C(=O)O; ξGly(octyl) = CCCCCCCCC(N)C(=O)O; hLeu = CC(C)CC[C@H](N)C(=O)O

T1: hFZD8 CRD-Fc (human, UniProt Q9H461 28-158, limits assumed)
T1 construct: domain: CRD; bought (R&D Systems); not shown: Fc part
T1 sequence (looked up): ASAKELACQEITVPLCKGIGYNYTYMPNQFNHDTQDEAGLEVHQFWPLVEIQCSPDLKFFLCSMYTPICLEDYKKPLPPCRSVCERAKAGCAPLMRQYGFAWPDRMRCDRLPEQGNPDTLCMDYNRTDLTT

B1: SEQ ID NO 9 (peptide)
peptide: ACSYVIDLWNLCLR
B2: SEQ ID NO 15 (peptide)
peptide: FWMQLQDGFAIWFP
B3: SEQ ID NO 6 (peptide)
peptide: DTDLHQWCLWFT
B4: SEQ ID NO 14 (peptide)
peptide: DTDLLQWCLWFT
B5: SEQ ID NO 8 (peptide)
peptide: FELLLDLGDLIRLW
B6: SEQ ID NO 18 (peptide)
peptide: ILTFEYFWILGLIL
B7: SEQ ID NO 22 (peptide)
peptide: VFVPFSELTSLC
B8: SEQ ID NO 25 (peptide)
peptide: EHDLLLRAMNSFVLIF
B9: SEQ ID NO 1 (peptide)
peptide: YEHLHDLMDLIRPW
notes: also called Fz7-07
B10: SEQ ID NO 10 (peptide)
peptide: ASELHDWCRMMFPW
B11: SEQ ID NO 23 (peptide)
peptide: IWFKGRFVEFSSLV
notes: also called Fz7-17
B12: SEQ ID NO 12 (peptide)
peptide: PPNVHEGCWSMFPW
B13: SEQ ID NO 27 (peptide)
peptide: NPPPECFLSK
B14: SEQ ID NO 24 (peptide)
peptide: NAFWRDQCLEWFIICL
B15: SEQ ID NO 11 (peptide)
peptide: ISLIEAMIALDRVF
notes: also called Fz7-06
B16: dFz7-21Δ2.M13Tbh (peptide)
peptide: Ac-SDDLEFWCHV[Tbh]Y-NH2
modifications: also: dimer via disulfide bond at Cys8
B17: SEQ ID NO 26 (peptide)
peptide: FCENPYIICW
B18: SEQ ID NO 3 (peptide)
peptide: PQDLLDWCHYMIVSSD
B19: dFz7-21Δ2.L6Hol (peptide)
peptide: Ac-SDD[hLeu]EFWCHVMY-NH2
modifications: also: dimer via disulfide bond at Cys8
B20: SEQ ID NO 95 (peptide)
peptide: VPSDDLEFWCAVMY
B21: SEQ ID NO 19 (peptide)
peptide: LPLFFLSYVL
B22: dFz7-21Δ2.M13C8 (peptide)
peptide: Ac-SDDLEFWCHV[ξGly(octyl)]Y-NH2
modifications: also: dimer via disulfide bond at Cys8
B23: dFz7-21Δ2.L6Hof (peptide)
peptide: Ac-SDD[hPhe]EFWCHVMY-NH2
modifications: also: dimer via disulfide bond at Cys8
B24: SEQ ID NO 7 (peptide)
peptide: FWMLLQEGFAFWFP
B25: SEQ ID NO 28 (peptide)
peptide: VFFYHSLFFIKLILDP
B26: dFz7-21Δ2.M13Adp (peptide)
peptide: Ac-SDDLEFWCHV[Adp]Y-NH2
modifications: also: dimer via disulfide bond at Cys8
B27: SEQ ID NO 31 (peptide)
peptide: FWFDFWFG
B28: SEQ ID NO 13 (peptide)
peptide: LPSDDLEFWCHVMY
notes: also called Fz7-21
B29: SEQ ID NO 30 (peptide)
peptide: LSSGKKVSSYWFNFWF
B30: SEQ ID NO 21 (peptide)
peptide: SCQMWSNLRVLFLSYW
B31: SEQ ID NO 2 (peptide)
peptide: TYFDDICNLILPWANP
B32: SEQ ID NO 4 (peptide)
peptide: ACSYVIDLWNQCLT
B33: SEQ ID NO 17 (peptide)
peptide: GDFWPGSLLWEILV
B34: SEQ ID NO 20 (peptide)
peptide: FLPDQHSHLFLPWGEP
B35: SEQ ID NO 98 (peptide)
peptide: AAADDLAAWCHVVY
B36: SEQ ID NO 29 (peptide)
peptide: ERRVCYPWFEVSQP

Legend:
[1] = target: T2, hFZD7 CRD-Fc (human, UniProt O75084 33-185); assay: spot phage ELISA
[2] = target: T1, hFZD8 CRD-Fc; assay: spot phage ELISA
[3] = target: FZD7 receptor of HEK293-TB cells (human, UniProt O75084 33-574); assay: cell-based or functional assay
[4] = target: T2, hFZD7 CRD-Fc; assay: spot phage ELISA; remark: listed apart in the source

Binder | signal:noise ratio [1] | signal:noise ratio [2] | also measured
B1 | 27.6 | 1.5 | 
B2 | 27.8 |  | 
B3 | 30.2 | 9.3 | 
B4 | 31.1 | 6 | 
B5 | 26.9 | 2 | 
B6 | 4.5 | 1.1 | 
B7 | 7.8 | 1 | 
B8 | 7.6 | 1 | 
B9 | 23.2 | 1.6 | 
B10 | 28.9 | 1.3 | 
B11 | 7.7 | 1 | 
B12 | 28.1 | 1.3 | 
B13 | 5.2 | 1.1 | 
B14 | 5.5 | 1.1 | 
B15 | 27 | 25.8 | 
B16 |  |  | Best Fit IC50 (nM), Wnt3a-mediated β-catenin signaling in HEK293-TB cells (50 ng/mL mWnt3a) [3]: 477 nM
B17 | 8.6 | 0.8 | 
B18 | 29.1 | 1.3 | 

Binder | signal:noise ratio [1] | signal:noise ratio [2] | also measured
B19 |  |  | Best Fit IC50 (nM), Wnt3a-mediated β-catenin signaling in HEK293-TB cells (50 ng/mL mWnt3a), n = 2 [3]: 16600 nM
B20 |  |  | S/N [4]: 2.1; S/W [4]: 0.1
B21 | 6.3 | 1.1 | 
B22 |  |  | Best Fit IC50 (nM), Wnt3a-mediated β-catenin signaling in HEK293-TB cells (50 ng/mL mWnt3a) [3]: 14000 nM
B23 |  |  | Best Fit IC50 (nM), Wnt3a-mediated β-catenin signaling in HEK293-TB cells (50 ng/mL mWnt3a) [3]: 14.9 nM
B24 | 30.5 | 6.4 | 
B25 | 4.7 | 1.3 | 
B26 |  |  | Best Fit IC50 (nM), Wnt3a-mediated β-catenin signaling in HEK293-TB cells (50 ng/mL mWnt3a) [3]: 1410 nM
B27 | 4.2 | 0.8 | 
B28 | 24.5 | 1.1 | 
B29 | 3.5 | 1 | 
B30 | 1 | 0.7 | 
B31 | 27.5 | 1.4 | 
B32 | 26.8 | 3.1 | 
B33 | 4.4 | 1 | 
B34 | 5.3 | 1 | 
B35 |  |  | S/N [4]: 50.8; S/W [4]: 2.7
B36 | 2.6 | 1.2 | 
